Reference: patent US20210292393A1 (published 2021)
Numbering of substitutions follows the chain as printed.

B1: antibody 310 (antibody, V domains shown)
VH: EVQLVESGGGLVQPGGSLRLSCAASGFTFSSYWMSWVRQAPGKGLEWVANIKQDGSEKYYVDSVKGRFTISRDNAKNSLYLQMNSLRAEDTAVYYCARVGSSSWYFDYWGQGTLVTVSS
VL: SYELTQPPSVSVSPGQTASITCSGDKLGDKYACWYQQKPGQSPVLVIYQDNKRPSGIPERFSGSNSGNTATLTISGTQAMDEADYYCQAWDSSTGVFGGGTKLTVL
B2: antibody 378 (antibody, V domains shown)
VH: QVQLVQSGAEVKKPGASVKVSCKASGYTFTSYYMHWVRQAPGQGLEWMGIINPSGGSTSYAQKFQGRVTMTRDTSTSTVYMELSSLRSEDTAVYYCARDSGGMDDFWSGYYSPGGDYWGQGTLVTVSS
VL: QSALTQPASVSGSPGQSITISCTGTSSDVGSYNLVSWYQQHPGKAPKLMIYEGSKRPSGVSNRFSGSKSGNTASLTISGLQAEDEADYYCCSYAGSSTWVFGGGTKLTVL
B3: antibody 372 (antibody, V domains shown)
VH: QVQLVESGGGVVQPGRSLRLSCAASGFTFSSYAMHWVRQAPGKGLEWVAVISYDGSNKYYADSVKGRFTISRDNSKNTLYLQMNSLRAEDTAVYYCARDLGTSALLWFGELFLNYGMDVWGQGTTVTVSS
VL: QSALTQPRSVSGSPGQSVTISCTGTSSDVGGYNYVSWYQQHPGKAPKLMIYDVSKRPSGVPDRFSGSKSGNTASLTISGLQAEDEADYYCCSYAGSPILVFGGGTKLTVL
B4: antibody 385 (antibody, V domains shown)
VH: QVQLVESGGGVVQPGRSLRLSCAASGFTFSSYAIHWVRQAPGKGLEWVAVISYDGSNKYYADSVKGRFTISRDNSKNTLYLQMNSLRAEDTAVYYCARPRSGSYWGAFDIWGQGTMVTVSS
VL: QSVLTQPPSVSGAPGQRVTISCTGSSSNIGARYDVHWYQQLPGTAPKLLIYGNSNRPSGVPDRFSGSKSGTSASLAITGLQAEDEADYYCQSYDSSLRGVFGGGTKLTVL
B5: antibody 367 (antibody, V domains shown)
VH: QVQLVQSGAEVKKPGASVKVSCKASGYTFTGYYIHWVRQAPGQGLEWMGWINPNSGGTIYAQKFQGRVTMTRDTSISTAYMELSRLTSDDTAVYSCAREPYYDILTGYYAPRRYFDYWGQGTLVTVSS
VL: QSALTQPASVSGSPGQSITISCTGTSSDVGSYNYVSWYLQHPGKAPKLMIYDVSNRPSGVSNRFSGSKSGNTASLTISGLQAEDEADFYCSSYTSRSTYVFGTGTKVTVL
B6: antibody 421 (antibody, V domains shown)
VH: QVQLVESGGGVVQPGRSLRLSCAASGFTFSTYAMHWVRQAPGKGLEWVAVISYDGSNKYYADSVKGRFTISRDNSKNTLYLQMNSLRAEDTAVYYCARGYGSGSYYPLYLYWGQGTLVTVSS
VL: not shown
B7: antibody 456 (antibody, V domains shown)
VH: QVQLQQWGAGLLKPSETLSLTCAVYGGSFSGYYWSWIRQPPGKGLEWIGEINHSGSTNYNPSLKSRVTISVDTSKNQFSLKLSSVTAADTAVYYCARDGSGSYYLSYYFDYWGQGTLVTVSS
VL: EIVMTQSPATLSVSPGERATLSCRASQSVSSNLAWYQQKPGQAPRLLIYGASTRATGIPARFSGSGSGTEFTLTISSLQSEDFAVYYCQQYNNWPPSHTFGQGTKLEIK
B8: antibody 446 (antibody, V domains shown)
VH: B4 VH with I34M, R100N, W105F, A107Y, D109Q, I110H, M116L
VL: QSVLTQPPSVSGAPGQRVTISCTGSSSNIGAGYDVHWYQQLPGTAPKLLIYGNSNRPSGVPDRFSGSKSGTSASLAITGLQAEDEADYYCQSYDSSLSGFYVFGTGTKVTVL
B9: antibody 439 (antibody, V domains shown)
VH: B4 VH with I34M, R100P, S101R, S103G, Y104S, W105Y, G106Y, A107P, I110P, M116L
VL: not shown
B10: antibody 422 (antibody, V domains shown)
VH: QVQLVQSGSELKKPGASVKVSCKASGYTFTSYAMNWVRQAPGQGLEWMGWINTNTGNPTYAQGFTGRFVFSLDTSVSTTYLQISSLKAEDTAVYYCARVIGVVTYYYYGMDVWGQGTTVTVSS
VL: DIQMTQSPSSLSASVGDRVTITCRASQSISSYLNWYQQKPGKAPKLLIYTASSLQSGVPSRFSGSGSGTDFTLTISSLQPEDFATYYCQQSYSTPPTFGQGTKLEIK
B11: antibody 423 (antibody, V domains shown)
VH: EVQLVESGGGLIQPGGSLRISCAASGFTVRNNHMSWVRQAPGKGLEWVSVFYRGGTTYYADSVKGRFTISRDDSKNTVDLQMNSLRGEDTAVYYCARGLSVAASGYFDCWGQGTLVTVSS
VL: DIQMTQSPSSVSASVGDTVTITCRANQGISSWLAWYQQVPGKAPELLIYATSTLQSGVPSRFSGSGSGTDFTLTISSLQPEDFATYYCQQANSFPFTFGPGTKVDIK
B12: antibody 431 (antibody, V domains shown)
VH: QVQLVESGGGVVQPGRSLRLSCAASGFTFSSYAMHWVRQAPGKGLEWLAVISYDGSNKYYADSVKGRFTISRDNSKNTLYLQMNSLRAEDTAVYYCARSFRGGYYYGMDVWGQGTTVTVSS
VL: DIQLTQSPSFLSASVGDRVTITCRASQGISSYLAWYQQKPGKAPKLLIYAASTLQSGVPSRFSGSGSGTEFTLTISSLQPEDFATYYCQQLNSYPLFTFGPGTKVDIK
B13: antibody 454 (antibody, V domains shown)
VH: B5 VH with V18L, T28I, I34M, N52S, I59K, T87R, T91S, S95Y, A110T, F115L
VL: B5 VL with S31D, L39Q, A45V, N55H, S61T, Q81R, F88Y, R96S
B14: antibody 525 (antibody, V domains shown)
VH: QVQLVESGGGVVQPGRSLRLSCAASGFTFSSYAMHWVRQAPGKGLEWVTVISYNGRNKYYADSVKGRFTISRDNSKNTLYLQMNSLRAEDTAVYWCAREGLGAIVVGLDYWGQGTLVIVSS
VL: not shown
B15: antibody 535 (antibody, V domains shown)
VH: EVQLVESGGGLIQPGGSLRLSCAASGFTVSSNYMSWVRQAPGKGLEWVSVIYSGGSTYYADSVKGRFTISRDNSKNTLYLQMNSLRAEDTAVYYCARDLTEEGDFWSASSYRRYYYYGMDVWGQGTTVTVSS
VL: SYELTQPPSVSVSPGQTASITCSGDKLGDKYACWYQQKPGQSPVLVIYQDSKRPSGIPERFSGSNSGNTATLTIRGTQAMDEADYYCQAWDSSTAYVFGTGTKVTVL
B16: antibody 528 (antibody, V domains shown)
VH: QVQLVQSGAEVKKPGSSVKVSCKASGGTFNSNSISWVRQAPGQGLEWMGRIIPILDITMYARKFQGRVTISADKSTGTAYMDLSSLRSEDTAVYYCATDRDDSSGDYYYGMDVWGQGTTVTVSS
VL: DIQMTQSPSSLSASVGDRVTITCRASLSISNYLNWYQQKPGKAPNLLIYAASTLQSGVPSRFSGSGSGTDFTLTISSLQPEDFATYYCQQTYITRWTFGQGTKVEIK
B17: antibody 529 (antibody, V domains shown)
VH: QVQLVQSGAEVKKPGASVKVSCKASGYTFTSYGISWVRQAPGQGLEWMGWISAYNGNTNYAQKLQGRVTMTTDTSTSTAYMELRSLRSDDTAVYYCARMLIAAAGTSRDYYGMDVWGQGTTVTVSS
VL: EIVLTQSPDFQSVTPKEKVTITCRASQSIGSSLHWYQQKPDQSPKLLIKYASQSFSGVPSRFSGSGSGTDFTLTINSLEAEDAATYYCHQSSSLPHTFGGGTKVEIK
B18: antibody 520 (antibody, V domains shown)
VH: QVQLVESGGGVVQPGRSLRLSCAASGFTFSSYAMHWGRQAPGKGLEWVAVISYDGSNKYYADSVKGRFTISRDNSKNTLYLQMNSLRAEDTAVYYCARDGGSGWLLVGNWFDPWGQGTLVTVSS
VL: QSALTQPASVSGSPGQSITISCTGTSSDVGGYNYVSWYQQHPGKAPKLMIYDVSNRPSGVSNRFSGSKSGNTASLTISGLQAEDEADYYCSSYTSSITLYVFGTGTKVTVL
B19: antibody 530 (antibody, V domains shown)
VH: EVQLVESGGGLVQPGGSLRLSCAASGFTFSSYWMSWVRQAPGKGLEWVANIKQDGSEKYYVDSVKGRFTISRDNAKNSLYLQMNSLRAEDTAVYYCAREPQLWSEYYFDYWGQGTLVTVSS
VL: DIQMTQSPSSLSASVGDRVTITCRASQGISSWLAWYQQKPEKAPKSLIYAASSLQSGVPSRFSGSGSGTDFTLTISSLQPEDFATYYCQQYNSYPPTFGQGTRLEIK
B20: antibody 532 (antibody, V domains shown)
VH: EVQLVESGGGLVQPGGSLRLSCAASGIIVSSNYMSWVRQAPGKGLEWVSVIYSGGSTYYADSVKGRFTISRDNSKNTLYLQMNSLRAEDTAVYYCAREGLVGATLAFDYWGQGTLVTVSS
VL: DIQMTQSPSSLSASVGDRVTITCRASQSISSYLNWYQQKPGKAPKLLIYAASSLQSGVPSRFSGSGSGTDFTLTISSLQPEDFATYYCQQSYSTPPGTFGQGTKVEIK
B21: antibody 552 (antibody, V domains shown)
VH: QVQLVQSGAEVKKPGSSVKVSCKASGGTFSSYGISWVRQAPGQGLEWMGRIIPILGIANYAQKFQGRVTITADKSTSTAYMELSSLRSEDTAVYYCARAVYAAGDDDYYYYYGMDVWGQGTTVTVSS
VL: SYELTQPPSVSVSPGQTARITCSGDALPKQYAYWYQQKPGQAPVVVIYKDSDRPSGIPERFSGSSSGTTVTLTISGVQAEDEADYYCQSADSSGTYQVFGTGTKVSVL
B22: antibody 515 (antibody, V domains shown)
VH: EVQLVESGGGLVKPGGSLRLSCAASGFTFSSYSMNWVRQAPGKGLEWVSSISSSSSYIYYADSVKGRFTISRDNAKNSLYLQMNSLRAEDTAVYYCASIAAAGTLYYYYGMDVWGQGTTVTVSS
VL: not shown
B23: antibody 559 (antibody, V domains shown)
VH: QVQLQESGPGLVKLSETLSLTCTVSGYSISSGYYWGWIRQPPGKGLEWIGSIYHSGSTYYNPSLKSRVTISVDTSKNQFSLKLSSVTAADTAVYYCAREETLGSSWYESYIDYWGQGTLVTVSS
VL: SYVLTQPPSVSVAPGKTARITCGGNNIGSKSVHWYQQKPGQAPVLVIYYDSDRPSGIPERFSGSNSGNTATLTISRVEAGDEADYYCQVWDSSSDHPRVFGGGTKLTVL

biological target: SARS-CoV-2 full length spike protein, V367F mutant (SARS-CoV-2, UniProt P0DTC2 14-1273)

| Binder | median fluorescence intensity, fold over isotype control [fold over isotype] |
| --- | --- |
| B1 | 28.1 |

biological target: SARS-CoV-2 full length spike protein, D614G mutant (SARS-CoV-2, UniProt P0DTC2 14-1273)

| Binder | median fluorescence intensity, fold over isotype control [fold over isotype] |
| --- | --- |
| B1 | 5.35 |

biological target: SARS-CoV-2 full length spike protein, V483A mutant, expressed on CHO cells (SARS-CoV-2, UniProt P0DTC2 14-1273)

| Binder | median fluorescence fold over isotype control [fold over isotype] |
| --- | --- |
| B2 | 14.3 |
| B3 | 18.1 |
| B4 | 8.16 |
| B5 | 16.3 |

biological target: SARS-CoV-2 full length spike protein, V483A mutant (SARS-CoV-2, UniProt P0DTC2 14-1273)

| Binder | median fluorescence fold over isotype control [fold over isotype] |
| --- | --- |
| B6 | 9.33 |
| B7 | 8.16 |
| B8 | 6.16 |
| B9 | 9.01 |
| B10 | 15.2 |
| B11 | 15.3 |
| B12 | 11.7 |
| B13 | 19.7 |

biological target: SARS-CoV-2 full length spike protein, V367F mutant (SARS-CoV-2, UniProt P0DTC2 14-1273); remark: another data set of the same source

| Binder | median fold over isotype [fold over isotype] |
| --- | --- |
| B14 | 32.4 |
| B15 | 64.5 |
| B16 | 31.2 |
| B17 | 0.98 |
| B18 | 31.2 |
| B19 | 8.39 |
| B20 | 45.1 |
| B21 | 13.2 |
| B22 | 9.43 |
| B23 | 25.4 |

biological target: SARS-CoV-2 full length spike protein, D614G mutant (SARS-CoV-2, UniProt P0DTC2 14-1273); remark: another data set of the same source

| Binder | median fold over isotype [fold over isotype] |
| --- | --- |
| B14 | 7.12 |
| B15 | 93.2 |
| B16 | 3.71 |
| B17 | 0.77 |
| B18 | 7.6 |
| B19 | 8.68 |
| B20 | 74.9 |
| B21 | 23.5 |
| B22 | 21.6 |
| B23 | 49.5 |
